Consider 1 substance from patent US20190382498A1.

This test addresses mutant membrane-bound TNFα on stably transfected CHO cells (B-220 cells) (UniProt P01375). Description: FACS, anti-CD19 beads with TNFα-transfected CHO cells. Background: In flow cytometry, cells or beads pass a laser one at a time.
Chain of UniProt P01375 (P01375 whole entry, change not shown): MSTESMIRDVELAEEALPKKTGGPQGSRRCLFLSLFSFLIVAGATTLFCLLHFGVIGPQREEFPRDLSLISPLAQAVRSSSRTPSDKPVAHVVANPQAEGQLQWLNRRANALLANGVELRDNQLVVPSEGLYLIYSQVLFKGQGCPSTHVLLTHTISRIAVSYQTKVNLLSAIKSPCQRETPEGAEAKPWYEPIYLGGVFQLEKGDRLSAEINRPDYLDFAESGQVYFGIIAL

In the case of “APC-labeled unrelated antibody (anti-CD19) coated on beads”, the #Events (CHO cells bound to anti-CD19 beads, gate P4) is 6 events; the #Events (unbound beads, gate P2) amounted to 558 events; the % Parent (gate P4) was determined as 0.1%; the % Total (gate P4) was 0.1%.
